Test results: article PMC4783143
pKd: −log10 of the molar value.

Columns and labels:
Assay in all cases: NMR titration
Cx43CT (S255-I382) = Cx43CT (S255-I382) (UniProt P08050)
Cx40CT (S251-V355) = biological target: Cx40CT (S251-V355)
Cx45CT (K265-I396) = Cx45CT (K265-I396) (UniProt P28229)
Sequence of UniProt P28229 (P28229 265-396): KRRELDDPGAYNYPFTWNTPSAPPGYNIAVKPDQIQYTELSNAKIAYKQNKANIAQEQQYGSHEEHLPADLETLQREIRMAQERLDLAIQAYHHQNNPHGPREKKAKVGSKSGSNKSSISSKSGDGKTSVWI

Sequence of UniProt P08050 (P08050 255-382): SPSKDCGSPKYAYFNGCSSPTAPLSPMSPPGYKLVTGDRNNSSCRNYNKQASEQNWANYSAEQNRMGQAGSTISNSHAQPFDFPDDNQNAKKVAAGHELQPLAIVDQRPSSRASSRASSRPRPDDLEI

## UBA domain of CIP75 (M549-S596) (from UniProt Q99NB8 549-596) (domain or fragment)
Cx43CT (S255-I382)
  pKd: 3.56
Cx40CT (S251-V355)
  pKd: 3.22
Cx45CT (K265-I396)
  pKd: 3.54
